Laboratory results reported in article PMC9243137, “Structural and electrophysiological basis for the modulation of KCNQ1 channel currents by ML277” (Nature Communications, 2022).

Columns and labels:
Calmodulin = target: T1, Calmodulin (UniProt P0DP23 1-149); assay: cryo-EM structure; xKCNQ1(67-610) co-expressed with CaM in tsA201 cells, complex purified in DDM/CHS, 0.5 mM CaCl2; grids without and with 100 uM ML277; C4 symmetry imposed; details: both partners purified
T1 construct: Calmodulin; DNA a gift of the Wayne Chen lab; model built from residues 10 to 146; Sample held 0.5 mM CaCl2; also called CaM; Ca2+/CaM; source: tsA201 cells, co-transfected with xKCNQ1 (pcDNA3), co-purified with xKCNQ1

[1] = target: the molecule itself; assay: as above

B1: Xenopus laevis KCNQ1, residues 67-610 (truncated, biochemically stable form) (domain or fragment, UniProt P70057 67-610, looked up)
chain: ATDPPRPTINLDPRVSIYSGRRPLLSRTNIQGRVYNFLERPTGWKCFVYHFTVFLIVLICLIFSVLSTIQQYNNLATETLFWMEIVLVVFFGAEYVVRLWSAGCRSKYVGVWGRLRFARKPISVIDLIVVVASVIVLCVGSNGQVFATSAIRGIRFLQILRMLHVDRQGGTWRLLGSVVFIHRQELITTLYIGFLGLIFSSYFVYLAEKDAIDSSGEYQFGSYADALWWGVVTVTTIGYGDKVPQTWIGKTIASCFSVFAISFFALPAGILGSGFALKVQQKQRQKHFNRQIPAAASLIQTAWRCYAAENPDSATWKIYIRKQSRNHHLMSPSPKPKKSAMVKKKKIRTERDEGSTDKMLNIPHITYDHVADDRKNDGYSVESYENTVRKPFGFLDPSTGPFIRTSSFTDDLDMEGDTLLTPITHISELKEHHRAAIKVIRRMQYFVAKKKFQQARKPYDVRDVIEQYSQGHLNLMVRIKELQRRLDQSLGKPSLFLSVSDKVKDKGINTIGSRLNRVEDKVTQMDHKLNLITDMLHHLLTNQQ
notes: KCNQ1 (Kv7.1) of Xenopus laevis, NP_001116347.1, residues 67-610; N- and C-termini truncated as in Sun and MacKinnon 2017; model built from residues 95 to 556 (67-94, 206-214, 385-496 disordered); Human KCNQ1 numbering is +10 against xKCNQ1; A preScission protease site stood between the channel and the C-terminal GFP-6xHis tag; residues of the site may be left after cleavage; Four subunits (C4 …)
binding result (Calmodulin): binds
binding result [1]: binds
